Reference: patent US11672826
Like-named read-outs stand apart in the source and are kept apart here. Blank lines part the entries; values can stand above or below the substance they belong to.

Key:
Experiment in all cases: cell-based or functional assay
TGFβ1 (R&D systems) [1] = target: TGFβ1 (R&D systems) (UniProt P01137)
TGFβ1 (R&D systems) [2] = target: TGFβ1 (R&D systems) (UniProt P01137); remark: listed apart in the source
IL2Rαβγ on CTLL2 cells = target: IL2Rαβγ on CTLL2 cells
[3] = target: IL2Rβ and common γ chain on 32Dβ cells
[4] = target: IL2Rβ and common γ chain on 32Dβ cells; remark: listed apart in the source
[5] = target: IL2Rβ and common γ chain on 32Dβ cells; remark: listed apart in the source
IL-21R on B9 cells = target: IL-21R on B9 cells

Chain of TGFβ1 (R&D systems) (P01137 279-390 limits assumed): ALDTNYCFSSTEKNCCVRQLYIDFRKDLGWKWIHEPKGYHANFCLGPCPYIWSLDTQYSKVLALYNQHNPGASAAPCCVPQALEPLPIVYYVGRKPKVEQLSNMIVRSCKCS
Chain of Human recombinant TGFβRII/Fc (P37173 24-159): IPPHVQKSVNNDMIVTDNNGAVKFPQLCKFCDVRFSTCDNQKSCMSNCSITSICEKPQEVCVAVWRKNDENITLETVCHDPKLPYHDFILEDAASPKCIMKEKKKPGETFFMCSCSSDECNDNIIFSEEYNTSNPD

IC50, TGFβ1 activity in HEK-Blue TGFβ reporter cells (TGFβ1 (R&D systems) [1]): 461 pM
IC50, TGFβ1 activity in HEK-Blue TGFβ reporter cells (TGFβ1 (R&D systems) [2]): 559 pM
Substance: Human recombinant TGFβRII/Fc (from UniProt P37173 24-159) (Fc fusion)

EC50 of CTLL-2 cell proliferation (WST1) (IL2Rαβγ on CTLL2 cells): 548 pM
EC50 of 32Dβ cell proliferation (WST1) [3]: 140 pM
Substance: recombinant IL-2 (from UniProt P60568 21-153) (ligand)

EC50 of CTLL2 cell proliferation (PrestoBlue) (IL2Rαβγ on CTLL2 cells): 4.95 pM
EC50 of CTLL2 cell proliferation (WST1) (IL2Rαβγ on CTLL2 cells): 6.22 pM
EC50 of 32Dβ cell proliferation (WST1) [3]: 1.6 pM
EC50 of 32Dβ cell proliferation (WST1) [4]: 10.6 pM
EC50 of 32Dβ cell proliferation (WST1) [5]: 16.6 pM
Substance: recombinant IL-15 (from UniProt P40933 49-162) (ligand)

EC50 of B9 cell proliferation (WST1) (IL-21R on B9 cells): 72600 pM
Substance: recombinant IL-21 (from UniProt Q9HBE4 32-162) (ligand)
